Measurements reported in patent publication US20250011431A1 (ADIVO, published 2025).
Substitutions are numbered along the chain they refer to. Values belong to the binder of their own block, whether it stands above or below them.

Tests used:
[1] = target: T1, biotinylated cPD-L1_hFc (Sino Biological Cat. 70110-D02H-B) (canine; human, biotinylated (sites not given)); assay: Fab-capture ELISA: Fab on anti-canine Fab capture antibody, cPD-L1_hFc-Biotin titrated
T1 construct: also called cPD-L1-biotin; cPD-L1_hFc-Biotin; not shown: human Fc tag (hFc)
T1 chain: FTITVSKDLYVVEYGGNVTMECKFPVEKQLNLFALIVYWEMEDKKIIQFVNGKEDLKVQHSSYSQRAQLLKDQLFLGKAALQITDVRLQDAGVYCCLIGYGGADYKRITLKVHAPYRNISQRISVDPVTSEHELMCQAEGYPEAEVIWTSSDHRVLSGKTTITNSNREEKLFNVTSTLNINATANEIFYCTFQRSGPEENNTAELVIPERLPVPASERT
Protocol: The screening was performed as described in Example 4. Fab binders of CAN1005016 and CAN1005019 were loaded onto plate-bound anti-canine Fab capture antibody, followed by addition of titration series of cPD-L1_hFc-Biotin. Detection was performed with Streptavidin-HRP. The parental clone CAN1005001 was included as a control. Curve fits and EC50 values were analyzed with GraphPad Prism.

[2] = target: T2, cPD-L1_hFc (canine PD-L1 Fc-fusion protein; Sino Biological Cat. 70110-D02H) (canine; human); assay: binding ELISA, cPD-L1 fusion protein on the plate
T2 construct: Bought product; also called canine PD-L1_hFc; cPD-L1 fusion protein; not shown: human Fc tag (hFc)
T2 chain: T1 chain

[3] = target: T2, cPD-L1_hFc (canine PD-L1 Fc-fusion …); assay: ELISA ligand-binding inhibition, cPD-L1_hFc on the plate, competitor PD-1-Biotin (206 nM)
Protocol: cPD-L1 fusion proteins were directly immobilized on the plate overnight at 4° C., commonly in a concentration of 57 nM. For […] ELISA, black 384 well Maxisorp plates were used. The coated plates were washed 3× with PBS-T, followed by blocking with Chemiblocker (Merck-Millipore; 2170) for 1 h at RT. The blocked plates were washed 3× with PBS-T, followed by addition of titration-series of blocking antibodies and incubation for 1 h at RT. Subsequently plates were washed again 3× with PBS-T and PD-1-Biotin (1× biotinylated via Avi-tag; Sinobiological Cat.: 70109-D27H-B) was added and incubated for 1 h at RT, usually in a concentration of 4 μg/ml (206 nM). This concentration of canine PD-1-Biotin was previously identified as optimal by titrating the binding of PD-1-Biotin towards immobilized canine PD-L1_hFc. After incubation with the ligand PD-1, the plate was washed 3× with PBS-T and suitable detection reagent for the biotinylated PD-1, usually Streptavidin-HRP, was added and incubated for 1 h at RT. Subsequently, the plate was washed 5×, followed by addition of Quanta Blue and measurement as described above for the screening ELISA.

[4] = target: T1, biotinylated cPD-L1_hFc (Sino …); assay: Fab-capture ELISA: Fab from lysate on anti-canine Fab antibody, cPD-L1-biotin titrated
Protocol: To identify derivatives with a higher affinity, an alternative ELISA setup was used for screening to better normalize BEL expression levels and differentiate Fabs more efficiently with respect to their affinity. In contrast to the previous screening ELISA setup, a Maxisorp plate was coated over night with an anti-canine Fab antibody in a low density of 1 μg/ml. Coated plates were washed 3× with PBS-T, followed by loading with diluted BELs. After the BEL incubation and washing with PBS-T, dilution series of cPD-L1-biotin was added to the plate. Detection was performed with Streptavidin-HRP, followed by more stringent 5× washing with PBS-T and Quanta Blue substrate addition. Measurement was performed as described before (Example 1).

PD-L1-his [5] = target: T3, PD-L1-his (canine); assay: grating-coupled interferometry (waveRAPID): antibody captured on PAG chip, PD-L1-his as analyte, 1:1 fit, 25 C
T3 construct: also called monovalent PD-L1 antigen; not shown: his tag
T3 chain: T1 chain
Protocol: (§1) To further characterize the kinetic properties of our candidates CAN1005016 and CAN1005019, the KD of our candidates was quantified using waveRAPID in a GCI system according to the procedure described below. The binding kinetics study was performed on the Creoptix® WAVEdelta system using a PAG sensor chip (Creoptix, a Malvern Panalytical brand). All experiments were performed with HBS-EP (Cytiva) as running buffer, at a temperature of 25° C. and sampling rate of 10 Hz. Data acquisition and evaluation were performed using WAVEcontrol software version 4.5.13.
(§2) Prior to ligand capturing, the sensor chip was conditioned by a 180 sec injection of 100 mM sodium borate, 1 M NaCl, pH 9 (Xantec). Antibody was diluted to 1 μg/ml in HBS-EP and captured to a density of =300 pg/mm2 on flow channel 2. Flow channel 1 was left blank to serve as a reference surface. For collection of kinetic data, PD-L1-his was diluted to 200 nM in HBS-EP and injected over ligand and reference surfaces in repeated analyte pulses of increasing duration (waveRAPID) at flowrate of 60 μl/min. PD-L1-his was injected for a total duration of 180 sec, followed by measuring complex-dissociation in running buffer for 30 min. Blank injections were performed to enable double referencing of the data and a 0.5% DMSO pulse injection (running buffer with 0.5% DMSO) was used as an analyte concentration modulation calibration curve. Data were corrected (X and Y offset, DMSO calibration, double referencing) and fitted with a simple 1:1 interaction model (global fit) to obtain kinetic parameters.

[6] = target: T2, cPD-L1_hFc (canine PD-L1 Fc-fusion …); assay: binding ELISA, IgG titrated on plate-bound cPD-L1_hFc
Protocol: cPD-L1 fusion proteins were directly immobilized on the plate, commonly in a concentration of 57 nM. For binding ELISA, black 384 well Maxisorp plates were used. This was performed overnight at 4° C. The coated plates were washed 3× with PBS-T, followed by blocking with Chemiblocker (Merck-Millipore; 2170) for 1 h at RT. After blocking, dilution series of the respective antibodies were added to the plate usually covering concentrations ranging from the single digit ng/ml to the single-digit ug/ml range. Antibodies were also incubated for 1 h at RT, followed by washing and by addition of suitable detection antibodies coupled to HRP. Measurement was carried out as described above for the Screening ELISA.

canine PD-L1 on cells = target: T4, canine PD-L1 on cells (canine); assay: flow cytometry on HEK293c18 cells transfected with canine PD-L1
T4 construct: also called wildtype canine PD-L1 on transfected HEK293c18 cells
T4 chain: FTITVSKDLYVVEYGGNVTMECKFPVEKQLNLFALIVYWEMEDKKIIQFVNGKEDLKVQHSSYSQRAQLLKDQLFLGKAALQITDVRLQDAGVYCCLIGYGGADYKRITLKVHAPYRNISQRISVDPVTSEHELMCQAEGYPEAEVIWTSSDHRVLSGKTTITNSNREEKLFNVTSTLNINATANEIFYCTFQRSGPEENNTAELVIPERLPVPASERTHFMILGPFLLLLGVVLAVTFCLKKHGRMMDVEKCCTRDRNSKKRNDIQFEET
Protocol: HEK293c18 cells were seeded in 6 well plates at a density of 1×10⁶ cells/well in DMEM+10% FCS. The next day, the transfection mix was prepared. […] Per well, 2 μg of the plasmid encoding for wildtype canine PD-L1 was diluted in 200 μl jetPRIME buffer. The solution was mixed and 4 μl of the transfection reagent was added, followed by mixing and centrifuging of the mixture. Then, the medium of the adherent cells is replaced by fresh medium and the transfection mix is carefully added onto the cells. The plate containing the transfected cells is placed back in the incubator and incubated for 24 h.
The cells were washed once by addition of 200 μl per well PBS/EDTA and centrifugation at 1500 rpm for 5 min. The supernatant was carefully decanted by holding the plate upside down above a waste and dried on a paper towel. Then, the cells were stained for dead cells with the dye Zombie violet (Biolegend; Cat.: 423114) diluted 1:500 in PBS/EDTA for 15 minutes at 4° C. in the dark. Subsequently, cells were washed with FACS Buffer (PBS/EDTA+2% FCS) as described above. Titration series of CAN1005016 and CAN1005019 usually ranging from 10 ng/ml to 10 μg/ml were prepared diluted in FACS buffer and added to the respective wells for a 30-minute incubation at 4° C. in the dark. […] Finally, the cells were washed again 3× and then resuspended in 200 μl FACS buffer and measured directly.

PD-L1-his [7] = target: T3, PD-L1-his; assay: grating-coupled interferometry, KD compared with that of CAN1005010H2
Protocol: as §1
as §2, with “Data were corrected (X and Y offset, DMSO calibration, double referencing) and fitted with a simple 1:1 interaction model (global fit) to obtain kinetic parameters.” left out

B1: CAN1005016 Fab (Fab, V domains shown)
VH: EVQLVESGGDLVKPGGTLRLSCVASGFTFSSYDMSWVRQSPGKGLQWVAVIWNTGSHAYYADAVKGRFTISRDNAKNTLYLQMNSLRAEDTAVYYCARGRQPRLVGTLDLWGQGTLVTVSS
VL: SYVLTQLPSVSVTLRQTARITCGGDSIGSKNVYWYQQKLGQAPVLIIYDDSSRPSGIPERFSGANSGNTATLTISGALAEDEADYYCQTYDSLVDVGVFGGGTQLTVL
EC50 [1]: 0.087 nM

B2: CAN1005001 IgG (antibody, V domains shown)
VH: EVQLVESGGDLVKPAGSLRLSCVASGFTFSSYSMSWVRQAPEKGLQLVAGISSGGSSTYYTDAVKGRFTISRDNAKNTVYLQMNSLRAEDTAMYYCARGQGGRSSFDYWGQGTLVTVSS
VL: B1 VL with T89S, D91A, S92M, L93P, V94L, D95T, V96G, G97T
notes: also called initial clone CAN1005001; parental clone CAN1005001
EC50 [2]: 0.4 nM
IC50 [3]: 4.6 nM

B3: CAN1005001L1 Fab (Fab, V domains shown)
VH: B2 VH
VL: B1 VL with T89S, S92I, L93P, V94L, D95T, V96G, G97T
notes: Fab from bacterial lysate
EC50 [4]: 0.362 nM

B6: CAN1005001 Fab (Fab, V domains shown)
VH: B2 VH
VL: B1 VL with T89S, D91A, S92M, L93P, V94L, D95T, V96G, G97T
notes: also called parental clone CAN1005001
EC50 [4]: 0.82 nM

B10: CAN1005001H3 Fab (Fab, V domains shown)
VH: B2 VH with G50W, S52D, S53A, G54Y, G55A, S56G, S57V, Y59S, T61A, D62N
VL: B1 VL with T89S, D91A, S92M, L93P, V94L, D95T, V96G, G97T
notes: Fab from bacterial lysate
EC50 [4]: 0.097 nM

Next, values leading:

Kd (PD-L1-his [5]): 2.8 nM
B4: CAN1005010H2 (as captured in the GCI measurement of anti-PD-L1 IgGs) (antibody, V domains shown)
VH: B1 VH
VL: B1 VL with Q88S, V94L
notes: also called parental clone CAN1005010H2

EC50 [6]: 0.076 nM
EC50 (canine PD-L1 on cells): 10.5 nM
fold improvement in affinity against CAN1005010H2 (PD-L1-his [7]): > 3 fold
IC50 [3]: 0.95 nM
Kd (PD-L1-his [5]): 0.77 nM
B5: CAN1005016 IgG (antibody, V domains shown)
VH: B1 VH
VL: SYVLTQLPSVSVTLRQTARITCGGDSIGSKNVYWYQQKLGQAPVLIIYDDSSRPSGIPERFSGANSGNTATLTISGALAEDEADYYCQTYDSLVDVGVFGGGTQLTVLG
notes: also called biotinylated CAN1005016

EC50 [4]: 0.121 nM
B7: CAN1005010H2 Fab (Fab, V domains shown)
VH: B1 VH
VL: B1 VL with Q88S, V94L
notes: Fab from bacterial lysate

EC50 [4]: 0.139 nM
B8: CAN1005010L1 Fab (Fab, V domains shown)
VH: B1 VH with T54E, H57S, A58T
VL: B1 VL
notes: Fab from bacterial lysate

EC50 [1]: 0.138 nM
B9: CAN1005019 Fab (Fab, V domains shown)
VH: B2 VH with G50W, S52D, S53A, G54Y, G55A, S56G, S57V, Y59S, T61A, D62N
VL: B1 VL with T89S, S92I, L93P, V94L, D95T, V96G, G97T

EC50 [6]: 0.049 nM
EC50 (canine PD-L1 on cells): 11.8 nM
IC50 [3]: 1.32 nM
Kd (PD-L1-his [5]): 1.7 nM
B11: CAN1005019 IgG (antibody, V domains shown)
VH: B2 VH with G50W, S52D, S53A, G54Y, G55A, S56G, S57V, Y59S, T61A, D62N
VL: B5 VL with T89S, S92I, L93P, V94L, D95T, V96G, G97T
notes: also called biotinylated CAN1005019
